Assay results published in patent publication US6355472B2, “Method for producing nucleoside-5′-phosphate ester” (Ajinomoto Co., Inc., priority 1996, dated 2002).

B1: Acid Phosphatase Derived from Morganella morganii: enzyme purified from cell-free extract of Morganella morganii NCIMB 10466 (SEQ ID NO: 4) (protein)
chain: AIPAGNDATTKPDLYYLKNEQAIDSLKLLPPPPEVGSIQFLNDQAMYEKGRMLRNTERGKQAQADADLAAGGVATAFSGAFGYPITEKDSPELYKLLTNMIEDAGDLATRSAKEHYMRIRPFAFYGTETCNTKDQKKLSTNGSYPSGHTSIGWATALVLAEVNPANQDAILERGYQLGQSRVICGYHWQSDVDAARIVGSAAVATLHSDPAFQAQLAKAKQEFAQKSQK
B2: Acid Phosphatase Derived from Escherichia blattae: enzyme purified from cell-free extract of Escherichia blattae JCM 1650 (SEQ ID NO: 8) (protein)
chain: LALVATGNDTTTKPDLYYLKNSEAINSLALLPPPPAVGSIAFLNDQAMYEQGRLLRNTERGKLAAEDANLSSGGVANAFSGAFGSPITEKDAPALHKLLTNMIEDAGDLATRSAKDHYMRIRPFAFYGVSTCNTTEQDKLSKNGSYPSGHTSIGWATALVLAEINPQRQNEILKRGYELGQSRVICGYHWQSDVDAARVVGSAVVATLHTNPAFQQQLQKAKAEFAQHQKK

Experiments:
[1] = 5′-inosinic acid production by purified enzyme sample at various pH; type: biochemical; conditions: enzyme 50 units/dl, pH 4.0, 30° C., 3 hours
Procedure: Sodium pyrophosphate (10 g/dl) and inosine (2 g/dl) were dissolved in sodium acetate buffers each having pH of 5.5, 5.0, 4.5, 4.0, and 3.5, to which the enzyme sample described above was added so that a concentration of 50 units/dl was obtained. The reaction mixture was incubated at 30° C. for 6 hours while maintaining each pH, and the amount of produced 5′-inosinic acid was measured along with passage of time. Produced inosinic acid contained only 5′-inosinic acid. Production of 2′-inosinic acid and 3′-inosinic acid by-products was not observed at all. The velocity of 5′-inosinic acid production was maximum at pH 5.0. However, the maximum accumulated amount of 5′-inosinic acid was higher at lower pH. The reaction condition at pH 4.0 was most efficient for production of 5′-inosinic acid, in which 5′-inosinic acid was produced and accumulated in an amount of 2.60 g/dl by performing the reaction for 3 hours.
Sodium pyrophosphate (15 g/dl) and inosine (3 g/dl) were dissolved in sodium acetate buffers each having pH of 5.5, 5.0, 4.5, 4.0, and 3.5, to which the enzyme sample described above was added so that a concentration of 50 units/dl was obtained. The reaction mixture was incubated at 30° C. for 6 hours while maintaining each pH, and the amount of produced 5′-inosinic acid was measured along with passage of time. Produced inosinic acid contained only 5′-inosinic acid. […]

[2] = Properties of the purified acid phosphatase; type: biochemical; conditions: for Temperature stability (stable up to): treatment at pH 7.0 for 30 minutes
Procedure: The transphosphorylation activity was measured under the following condition using inosine as the substrate. The reaction was performed at pH 5.0 at 30° C. for 10 minutes in a reaction solution (1 ml) containing 40 μmol/ml of inosine, 100 μmol/ml of sodium pyrophosphate, 100 μmol/ml of sodium acetate buffer (pH 5.0), and an enzyme. The reaction was stopped by adding 200 μl of 2 N hydrochloric acid. After that, precipitates were removed by centrifugation. Then, 5′-inosinic acid produced by the transphosphorylation reaction was quantitatively measured. The amount of enzyme to produce 1 μmol of 5′-inosinic acid per 1 minute under this standard reaction condition was defined as 1 unit.
The phosphomonoesterase activity was measured under the following condition using 5′-inosinic acid as a substrate. The reaction was performed at 30° C. for 10 minutes in a reaction solution (1 ml) containing 10 μmol/ml of 5′-inosinic acid, 100 μmol/ml of MES/NaOH buffer (pH 6.0), and an enzyme. The reaction was stopped by adding 200 μl of 2 N hydrochloric acid. After that, precipitates were removed by centrifugation. Then, inosine produced by the hydrolytic reaction was quantitatively measured. An amount of enzyme to produce 1 μmol of inosine per 1 minute under this standard reaction condition was defined as 1 unit.

[3] = phosphate ester hydrolytic reaction

| Molecule | 5′-inosinic acid produced and accumulated ([1]; sodium pyrophosphate 10 g/dl, inosine 2 g/dl) | Optimum temperature [2] | phosphate ester hydrolytic activity (phosphomonoesterase activity) higher than the transphosphorylation activity [2] | Optimum pH [2, 3] | Optimum pH ([2]; transphosphorylation reaction) | Temperature stability (stable up to) [2] | 5′-inosinic acid produced and accumulated ([1]; sodium pyrophosphate 15 g/dl, inosine 3 g/dl) |
| --- | --- | --- | --- | --- | --- | --- | --- |
| B1 | 2.60 g/dL | about 35 °C | not less than 20 times | 6.5 | 5.2 | up to 30 °C |  |
| B2 |  | about 35 °C | not less than 30 times | 6.5 | 5.2 | up to 40 °C | 1.56 g/dL |
